Results as given in publication PMC3192265 (Molecular microbiology, 2011).

Target: T1, B. subtilis DnaA (no tag) (B. subtilis, UniProt P05648 1-446)
T1 sequence (looked up): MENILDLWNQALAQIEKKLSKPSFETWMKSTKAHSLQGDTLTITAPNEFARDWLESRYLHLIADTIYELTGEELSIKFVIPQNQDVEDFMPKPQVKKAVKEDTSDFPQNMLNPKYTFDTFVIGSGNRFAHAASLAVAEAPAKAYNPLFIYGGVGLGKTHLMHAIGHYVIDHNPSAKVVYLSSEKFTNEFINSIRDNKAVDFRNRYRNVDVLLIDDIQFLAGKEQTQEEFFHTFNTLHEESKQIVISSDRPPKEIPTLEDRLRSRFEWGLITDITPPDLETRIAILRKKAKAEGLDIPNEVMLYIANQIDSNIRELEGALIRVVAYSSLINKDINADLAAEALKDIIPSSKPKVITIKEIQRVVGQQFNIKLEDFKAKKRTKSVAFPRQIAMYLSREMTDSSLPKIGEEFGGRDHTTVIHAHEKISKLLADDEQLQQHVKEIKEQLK
Test: native gel or EMSA

binding result: binds
B1: his-YabA (recombinant YabA with a hexa-histidine tag at its N-terminus) (natural protein)
chain: not shown
